Test results published in patent publication US20030148956A1 (PROCTER AND GAMBLE, published 2003).
Substitutions are numbered along the chain they refer to. Ends that are not written are not given here.

T1: CRF2R
T1 sequence (Q13324 whole entry, species assumed, looked up): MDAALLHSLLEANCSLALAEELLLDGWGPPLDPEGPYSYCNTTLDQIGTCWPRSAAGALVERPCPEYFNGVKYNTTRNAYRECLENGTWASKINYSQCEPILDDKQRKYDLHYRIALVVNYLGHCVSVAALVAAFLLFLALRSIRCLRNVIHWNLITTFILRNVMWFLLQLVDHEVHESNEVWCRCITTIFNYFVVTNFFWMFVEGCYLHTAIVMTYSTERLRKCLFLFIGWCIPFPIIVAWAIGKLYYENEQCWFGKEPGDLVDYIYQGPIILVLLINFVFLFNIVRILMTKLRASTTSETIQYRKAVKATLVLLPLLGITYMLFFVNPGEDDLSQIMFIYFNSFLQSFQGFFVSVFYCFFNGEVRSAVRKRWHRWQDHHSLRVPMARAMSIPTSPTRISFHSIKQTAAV

B1: SEQ ID NO 162 (peptide)
peptide: SEEPPISLDVPIGLLQEVLEMARAEQLAQQAHSNRKLMEII-NH2
B2: SEQ ID NO 164 (peptide)
peptide: IVLSLDVPIGLLQILLEMARAEQLAQQAHSNRKLMEII-NH2
B3: SEQ ID NO 157 (peptide)
peptide: SQEPPISLDLTFHLLREVLEQARARAAREQATTNARILARV-NH2
B4: SEQ ID NO 155 (peptide)
peptide: IVLSLDVPIGLLQILLEMTKADQLAQQAHSNRKLLDIA-NH2
B5: SEQ ID NO 145 (peptide)
peptide: ZGPPISIDLPLHLLRKMIEIEKQEKEKQQATTNARILARV
modifications: C-terminal amide
B6: SEQ ID NO 171 (peptide)
peptide: B5 peptide with L9V, L11F, H12Q, K16I, M17L
modifications: C-terminal amide
B7: SEQ ID NO 150 (peptide)
peptide: B5 peptide with L11I, H12Q
modifications: C-terminal amide
B8: SEQ ID NO 146 (peptide)
peptide: B5 peptide with L11F
modifications: C-terminal amide
B9: SEQ ID NO 169 (peptide)
peptide: B5 peptide with L9V, L11T, H12Y, K16I, M17L
modifications: C-terminal amide
B10: SEQ ID NO 149 (peptide)
peptide: B5 peptide with L11I, H12Y
modifications: C-terminal amide
B11: SEQ ID NO 147 (peptide)
peptide: B5 peptide with L11F, H12Y
modifications: C-terminal amide
B12: SEQ ID NO 170 (peptide)
peptide: B5 peptide with L9V, L11T, H12Y
modifications: C-terminal amide
B13: SEQ ID NO 151 (peptide)
peptide: B5 peptide with L11T, H12Y
modifications: C-terminal amide
B14: SEQ ID NO 148 (peptide)
peptide: B5 peptide with L11F, H12Q
modifications: C-terminal amide
B15: SEQ ID NO 172 (peptide)
peptide: B5 peptide with L9V, L11F, H12Q
modifications: C-terminal amide
B16: SEQ ID NO 152 (peptide)
peptide: SQEIVLSLDVPIGLLREVLEMTKADQLAQQAHSNRKLLDIA-NH2
B17: SEQ ID NO 167 (peptide)
peptide: IVLSLDVPIGLLQILLEQEKQEKEKQQATTNARILARV-NH2
B18: SEQ ID NO 159 (peptide)
peptide: IVLSLDVPIGLLQILLEQTKADQLAQQAHSNRKLLDIA-NH2
B19: SEQ ID NO 156 (peptide)
peptide: ZGPPISIDLSLELLRKMIEQARARAAREQATTNARILARV
modifications: C-terminal amide
B20: SEQ ID NO 15 (peptide)
peptide: ZGPPISIDLPFQLLRKMIEIEKQEKEKQQAAANRLLLDTV
modifications: C-terminal amide
B21: SEQ ID NO 17 (peptide)
peptide: B20 peptide with A31T, A32T, D38A
modifications: C-terminal amide
B22: SEQ ID NO 16 (peptide)
peptide: B20 peptide with A31T, A32T
modifications: C-terminal amide
B23: SEQ ID NO 163 (peptide)
peptide: IVLSLDVPIGLLQILLEQARARAAREQATSNRKLMEII-NH2
B24: SEQ ID NO 154 (peptide)
peptide: IVLSLDVPIGLLQILIEIEKQEKEKQQAANNRLLLDTI-NH2
B25: SEQ ID NO 158 (peptide)
peptide: IVLSLDVPIGLLQILLEIEKQEKEKQQAANNRLLLDTI-NH2
B26: SEQ ID NO 160 (peptide)
peptide: IVLSLDVPIGLLQTLLELARTQSQRERAEQNRIIFDSV-NH2
B27: SEQ ID NO 153 (peptide)
peptide: ZGIVLSLDVPIGLLRKMIEIEKQEKEKQQAANNRLLLDTI
modifications: C-terminal amide
B28: SEQ ID NO 165 (peptide)
peptide: IVLSLDVPIGLLQEVLEMARAEQLAQQAHSNRKLMEII-NH2
B29: SEQ ID NO 168 (peptide)
peptide: IVLSLDVPIGLLQILIEIEKQEKEKQQAATTNARILARV-NH2
B30: SEQ ID NO 166 (peptide)
peptide: IVLSLDVPIGLLQILIEIEKQEKEKQQAANNARILARV-NH2
B31: SEQ ID NO 161 (peptide)
peptide: SEEPPISLDLTFHLLREVLEMARAEQLAQQAHTNARILARV-NH2

molecular target: T1, CRF2R; test: cell-based or functional assay

Binder | CRF2R EC50 | CRF2R Emax
B1 | > 100 nM | 7%
B2 | 2.24 nM | 92%
B3 | 42 nM | 60.6%
B4 | 20.6 nM | 94%
B5 | 7.8 nM | 69%
B6 | 17.6 nM | 100%
B7 | 34.6 nM | 70.5%
B8 | 8.2 nM | 84.5%
B9 | 17.8 nM | 93%
B10 | 26.2 nM | 95.5%
B11 | 6.75 nM | 94%
B12 | 75 nM | 83%
B13 | 36.8 nM | 96%
B14 | 9.45 nM | 51.5%
B15 | 13.5 nM | 100%
B16 | > 100 nM | 19%

Binder | CRF2R EC50 | CRF2R Emax
B17 | 13 nM | 100%
B18 | 90.8 nM | 62%
B19 | 9.29 nM | 79%
B20 | 6.56 nM | 97%
B21 | 10.2 nM | 96%
B22 | 7.88 nM | 86%
B23 | 4.49 nM | 96%
B24 | 10.3 nM | 100%
B25 | 6.37 nM | 89%
B26 | 9.15 nM | 87%
B27 | 9.28 nM | 97%
B28 | > 100 nM | 75%
B29 | 4.9 nM | 75%
B30 | 3.7 nM | 99%
B31 | > 100 nM | 88%

molecular target: CRF1R; test: cell-based or functional assay

Binder | CRF1R EC50 | CRF1R Emax
B1 | > 100 nM | 11%
B2 | > 100 nM | 26%
B3 | 100 nM | 91%
B4 | 40.6 nM | 16%
B5 | 196 nM | 91.3%
B6 | 206 nM | 99%
B7 | 1000 nM | 5.7%
B8 | 103 nM | 100%
B9 | 978 nM | 26%
B10 | 1000 nM | 40.7%
B11 | 102 nM | 96%
B12 | 1000 nM | 9%
B13 | 1000 nM | 19.9%
B14 | 295 nM | 100%
B15 | 1000 nM | 68%
B16 | > 100 nM | 4%

Binder | CRF1R EC50 | CRF1R Emax
B17 | 1000 nM | 15%
B18 | > 100 nM | 9%
B19 | > 100 nM | 6%
B20 | 85.3 nM | 86%
B21 | 260 nM | 98%
B22 | 136 nM | 98%
B23 | > 100 nM | 13%
B24 | > 100 nM | 7%
B25 | > 100 nM | 15%
B26 | > 100 nM | 10%
B27 | > 100 nM | 7%
B28 | > 100 nM | 19%
B29 | 1000 nM | 52%
B30 | 438 nM | 95%
B31 | > 100 nM | 77%
